Target: the molecule itself
Assay: SEC-MALS

B1: KIF20A 55-665 (dimeric motor construct) (domain or fragment, mouse, UniProt P97329 55-665, looked up)
chain: ALLEDTSEKVKVYLRIRPFLTSELDRQEDQGCVCIENTETLVLQAPKDSFALKSNERGVGQATHKFTFSQIFGPEVGQVAFFNLTMKEMVKDVLKGQNWLIYTYGVTNSGKTYTIQGTSKDAGILPQSLALIFNSLQGQLHPTPDLKPLLSNEVIWLDSKQIRQEEMKKLSLLIGGLQEEELSTSVKKRVHTESRIGASNSFDSGVAGLSSTSQFTSSSQLDETSQLWAQPDTVPVSVPADIRFSVWISFFEIYNELLYDLLEPPSHQHKRQTLRLCEDQNGNPYVKDLNWIHVRDVEEAWKLLKVGRKNQSFASTHMNQQSSRSHSIFSIRILHLQGEGDIVPKISELSLCDLAGSERCKHQKSGERLKEAGNINTSLHTLGRCIAALRQNQQNRSKQNLIPFRDSKLTRVFQGFFTGRGRSCMIVNVNPCASTYDETLHAAKFSALASQLVHAPPVHLGIPSLHSFIKKHSPQVGPGLEKEDKADSDLEDSPEDEADVSVYGKEELLQVVEAMKALLLKERQEKLQLEIQLREEICNEMVEQMQQREQWCSERLDNQKELMEELYEEKLKILKESLTTFYQEQIQERDEKIEELETLLQEAKQQPAAQQ
  stoichiometry N: 2

B2: KIF20A 1-665 (dimeric motor construct) (domain or fragment, mouse, UniProt P97329 1-665, looked up)
chain: MSHRILSPPAGLLSDEDVVDSPILESTAADLRSVVRKDLLSDCSVISASLEDKQALLEDTSEKVKVYLRIRPFLTSELDRQEDQGCVCIENTETLVLQAPKDSFALKSNERGVGQATHKFTFSQIFGPEVGQVAFFNLTMKEMVKDVLKGQNWLIYTYGVTNSGKTYTIQGTSKDAGILPQSLALIFNSLQGQLHPTPDLKPLLSNEVIWLDSKQIRQEEMKKLSLLIGGLQEEELSTSVKKRVHTESRIGASNSFDSGVAGLSSTSQFTSSSQLDETSQLWAQPDTVPVSVPADIRFSVWISFFEIYNELLYDLLEPPSHQHKRQTLRLCEDQNGNPYVKDLNWIHVRDVEEAWKLLKVGRKNQSFASTHMNQQSSRSHSIFSIRILHLQGEGDIVPKISELSLCDLAGSERCKHQKSGERLKEAGNINTSLHTLGRCIAALRQNQQNRSKQNLIPFRDSKLTRVFQGFFTGRGRSCMIVNVNPCASTYDETLHAAKFSALASQLVHAPPVHLGIPSLHSFIKKHSPQVGPGLEKEDKADSDLEDSPEDEADVSVYGKEELLQVVEAMKALLLKERQEKLQLEIQLREEICNEMVEQMQQREQWCSERLDNQKELMEELYEEKLKILKESLTTFYQEQIQERDEKIEELETLLQEAKQQPAAQQ
  stoichiometry N: 2

B3: KIF20A 55-665 Δ(518-549) (dimeric motor, shortened neck linker) (domain or fragment, mouse, UniProt P97329 55-665, looked up)
chain: ALLEDTSEKVKVYLRIRPFLTSELDRQEDQGCVCIENTETLVLQAPKDSFALKSNERGVGQATHKFTFSQIFGPEVGQVAFFNLTMKEMVKDVLKGQNWLIYTYGVTNSGKTYTIQGTSKDAGILPQSLALIFNSLQGQLHPTPDLKPLLSNEVIWLDSKQIRQEEMKKLSLLIGGLQEEELSTSVKKRVHTESRIGASNSFDSGVAGLSSTSQFTSSSQLDETSQLWAQPDTVPVSVPADIRFSVWISFFEIYNELLYDLLEPPSHQHKRQTLRLCEDQNGNPYVKDLNWIHVRDVEEAWKLLKVGRKNQSFASTHMNQQSSRSHSIFSIRILHLQGEGDIVPKISELSLCDLAGSERCKHQKSGERLKEAGNINTSLHTLGRCIAALRQNQQNRSKQNLIPFRDSKLTRVFQGFFTGRGRSCMIVNVNPCASTYDETLHAAKFSALASQLVHAPPVHLGIPDEADVSVYGKEELLQVVEAMKALLLKERQEKLQLEIQLREEICNEMVEQMQQREQWCSERLDNQKELMEELYEEKLKILKESLTTFYQEQIQERDEKIEELETLLQEAKQQPAAQQ
  stoichiometry N: 2

B4: KIF20A 25-665 (dimeric motor construct) (domain or fragment, mouse, UniProt P97329 25-665, looked up)
chain: ESTAADLRSVVRKDLLSDCSVISASLEDKQALLEDTSEKVKVYLRIRPFLTSELDRQEDQGCVCIENTETLVLQAPKDSFALKSNERGVGQATHKFTFSQIFGPEVGQVAFFNLTMKEMVKDVLKGQNWLIYTYGVTNSGKTYTIQGTSKDAGILPQSLALIFNSLQGQLHPTPDLKPLLSNEVIWLDSKQIRQEEMKKLSLLIGGLQEEELSTSVKKRVHTESRIGASNSFDSGVAGLSSTSQFTSSSQLDETSQLWAQPDTVPVSVPADIRFSVWISFFEIYNELLYDLLEPPSHQHKRQTLRLCEDQNGNPYVKDLNWIHVRDVEEAWKLLKVGRKNQSFASTHMNQQSSRSHSIFSIRILHLQGEGDIVPKISELSLCDLAGSERCKHQKSGERLKEAGNINTSLHTLGRCIAALRQNQQNRSKQNLIPFRDSKLTRVFQGFFTGRGRSCMIVNVNPCASTYDETLHAAKFSALASQLVHAPPVHLGIPSLHSFIKKHSPQVGPGLEKEDKADSDLEDSPEDEADVSVYGKEELLQVVEAMKALLLKERQEKLQLEIQLREEICNEMVEQMQQREQWCSERLDNQKELMEELYEEKLKILKESLTTFYQEQIQERDEKIEELETLLQEAKQQPAAQQ
  stoichiometry N: 2

B5: KIF20A 55-665 Δ(535-549) (dimeric motor, shortened neck linker) (domain or fragment, mouse, UniProt P97329 55-665, looked up)
chain: ALLEDTSEKVKVYLRIRPFLTSELDRQEDQGCVCIENTETLVLQAPKDSFALKSNERGVGQATHKFTFSQIFGPEVGQVAFFNLTMKEMVKDVLKGQNWLIYTYGVTNSGKTYTIQGTSKDAGILPQSLALIFNSLQGQLHPTPDLKPLLSNEVIWLDSKQIRQEEMKKLSLLIGGLQEEELSTSVKKRVHTESRIGASNSFDSGVAGLSSTSQFTSSSQLDETSQLWAQPDTVPVSVPADIRFSVWISFFEIYNELLYDLLEPPSHQHKRQTLRLCEDQNGNPYVKDLNWIHVRDVEEAWKLLKVGRKNQSFASTHMNQQSSRSHSIFSIRILHLQGEGDIVPKISELSLCDLAGSERCKHQKSGERLKEAGNINTSLHTLGRCIAALRQNQQNRSKQNLIPFRDSKLTRVFQGFFTGRGRSCMIVNVNPCASTYDETLHAAKFSALASQLVHAPPVHLGIPSLHSFIKKHSPQVGPGLDEADVSVYGKEELLQVVEAMKALLLKERQEKLQLEIQLREEICNEMVEQMQQREQWCSERLDNQKELMEELYEEKLKILKESLTTFYQEQIQERDEKIEELETLLQEAKQQPAAQQ
  stoichiometry N: 2

Source: doi:10.1101/2022.11.10.515925 (bioRxiv, 2022)
